Key:
Experiment in all cases: cell-based or functional assay
[1] = biological target: Env of HIV isolate 246-F3.C10.2 (clade AC) (HIV)
[2] = biological target: Env of HIV isolate 25711-2.4 (clade C) (HIV)
[3] = biological target: Env of HIV isolate 26191-2.48 (clade C) (HIV)
[4] = biological target: Env of HIV isolate 6095.v1.c10 (clade ACD) (HIV)
[5] = biological target: Env of HIV isolate 6101.10 (clade B) (HIV)
[6] = biological target: Env of HIV isolate 6545.v4.c1 (clade AC) (HIV)
[7] = biological target: Env of HIV isolate 6644.v2.c33 (clade C) (HIV)
[8] = biological target: Env of HIV isolate 928-28 (clade AG) (HIV)
[9] = biological target: Env of HIV isolate BG1168.01 (clade B) (HIV)
[10] = biological target: Env of HIV isolate BJOX028000.10.3 (clade AE) (HIV)
[11] = biological target: Env of HIV isolate C4118.09 (clade AE) (HIV)
[12] = biological target: Env of HIV isolate CAP256.206.C9 (clade C) (HIV)
[13] = biological target: Env of HIV isolate CH117.4 (clade BC) (HIV)
[14] = biological target: Env of HIV isolate CNE14 (clade B) (HIV)
[15] = biological target: Env of HIV isolate CNE19 (clade BC) (HIV)
[16] = biological target: Env of HIV isolate CNE20 (clade BC) (HIV)
[17] = biological target: Env of HIV isolate CNE4 (clade B) (HIV)
[18] = biological target: Env of HIV isolate CNE58 (clade C in Table 7) (HIV)
[19] = biological target: Env of HIV isolate MB201.A1 (clade A) (HIV)
[20] = biological target: Env of HIV isolate Q23.17 (clade A) (HIV)
[21] = biological target: Env of HIV isolate SC422.8 (clade B) (HIV)
[22] = biological target: Env of HIV isolate T251-18 (clade AG) (HIV)
[23] = biological target: Env of HIV isolate TH966.8 (clade AE) (HIV)
[24] = biological target: Env of HIV isolate THRO.18 (clade B) (HIV)
[25] = biological target: Env of HIV isolate UG024.2 (clade D) (HIV)
[26] = biological target: Env of HIV isolate ZA012.29 (clade C) (HIV)
[27] = biological target: Env of HIV isolate ZM176.66 (clade C) (HIV)
[28] = biological target: Env of HIV isolate ZM214.15 (clade C) (HIV)
[29] = biological target: Env of HIV isolate ZM215.8 (clade C) (HIV)
[30] = biological target: Env of HIV isolate ZM249.1 (clade C) (HIV)
[31] = biological target: HIV Env of isolate 0260.v5.c36 (HIV)
[32] = biological target: HIV Env of isolate 191821.E6.1 (HIV)
[33] = biological target: HIV Env of isolate 246-F3.C10.2 (HIV)
[34] = biological target: HIV Env of isolate 25711-2.4 (HIV)
[35] = biological target: HIV Env of isolate 286.36 (HIV)
[36] = biological target: HIV Env of isolate 3016.v5.c45 (HIV)
[37] = biological target: HIV Env of isolate 45_01dG5 (HIV)
[38] = biological target: HIV Env of isolate 5768.04 (HIV)
[39] = biological target: HIV Env of isolate ADA.DG (HIV)
[40] = biological target: HIV Env of isolate BG505.W6M.C2 (HIV)
[41] = biological target: HIV Env of isolate BJOX002000.03.2 (HIV)
[42] = biological target: HIV Env of isolate BJOX010000.06.2 (HIV)
[43] = biological target: HIV Env of isolate Bal.01 (HIV)
[44] = biological target: HIV Env of isolate CH117.4 (HIV)
[45] = biological target: HIV Env of isolate CNE5 (HIV)
[46] = biological target: HIV Env of isolate DU123.06 (HIV)
[47] = biological target: HIV Env of isolate KER2008.12 (HIV)
[48] = biological target: HIV Env of isolate MB539.2B7 (HIV)
[49] = biological target: HIV Env of isolate Q259.17 (HIV)
[50] = biological target: HIV Env of isolate SO18.18 (HIV)
[51] = biological target: HIV Env of isolate T253-11 (HIV)
[52] = biological target: HIV Env of isolate T255-34 (HIV)

PGT121 (antibody) gave an IC50, pseudovirus neutralization [1] greater than 50 µg/mL, an IC50, pseudovirus neutralization [2] of 0.0173 µg/mL and an IC50, pseudovirus neutralization [3] of 0.085 µg/mL. It also gave an IC50, pseudovirus neutralization [4] of 1.98 µg/mL, an IC50, pseudovirus neutralization [5] of 0.0123 µg/mL and an IC50, pseudovirus neutralization [6] greater than 50 µg/mL. It also gave an IC50, pseudovirus neutralization [7] of 0.037 µg/mL, an IC50, pseudovirus neutralization [8] of 5.76 µg/mL and an IC50, pseudovirus neutralization [9] greater than 50 µg/mL. It also gave an IC50, pseudovirus neutralization [10] greater than 50 µg/mL, an IC50, pseudovirus neutralization [11] greater than 50 µg/mL and an IC50, pseudovirus neutralization [12] of 0.02 µg/mL. The IC50, pseudovirus neutralization [13] was greater than 50 µg/mL, the IC50, pseudovirus neutralization [14] was 0.0103 µg/mL and the IC50, pseudovirus neutralization [15] was 9.33 ng/mL. For the same substance, the IC50, pseudovirus neutralization [16] was 5 ng/mL, the IC50, pseudovirus neutralization [17] was 1.9 µg/mL and the IC50, pseudovirus neutralization [18] was 9.34 µg/mL. For the same substance, the IC50, pseudovirus neutralization [19] was 9.33 ng/mL, the IC50, pseudovirus neutralization [20] was 0.0107 µg/mL and the IC50, pseudovirus neutralization [21] was 0.115 µg/mL. The IC50, pseudovirus neutralization [22] was 3.05 µg/mL, the IC50, pseudovirus neutralization [23] was greater than 50 µg/mL and the IC50, pseudovirus neutralization [24] was greater than 50 µg/mL. The IC50, pseudovirus neutralization [25] was greater than 50 µg/mL, the IC50, pseudovirus neutralization [26] was 0.0117 µg/mL and the IC50, pseudovirus neutralization [27] was 4.1 µg/mL. For the same substance, the IC50, pseudovirus neutralization [28] was 0.392 µg/mL, the IC50, pseudovirus neutralization [29] was 0.0307 µg/mL and the IC50, pseudovirus neutralization [30] was greater than 50 µg/mL. It also gave an IC80 [31] of 0.159 µg/mL, an IC80, pseudovirus neutralization [32] greater than 50 µg/mL and an IC80 [33] greater than 50 µg/mL. The IC80, pseudovirus neutralization [34] was 0.0497 µg/mL, the IC80, pseudovirus neutralization [35] was 0.027 µg/mL and the IC80, pseudovirus neutralization [36] was greater than 50 µg/mL. The IC80 [37] was 0.0257 µg/mL, the IC80 [38] was 0.917 µg/mL and the IC80 [39] was 0.109 µg/mL. For the same substance, the IC80 [40] was 0.165 µg/mL, the IC80 [41] was 0.068 µg/mL and the IC80 [42] was greater than 50 µg/mL. For the same substance, the IC80 [43] was 0.0277 µg/mL, the IC80, pseudovirus neutralization [44] was greater than 50 µg/mL and the IC80 [45] was greater than 50 µg/mL. It also gave an IC80, pseudovirus neutralization [46] of 0.135 µg/mL, an IC80 [47] of 6.55 µg/mL and an IC80 [48] greater than 50 µg/mL. For the same substance, the IC80 [49] was greater than 50 µg/mL, the IC80, pseudovirus neutralization [50] was 0.0167 µg/mL and the IC80 [51] was greater than 50 µg/mL. For the same substance, the IC80 [52] was greater than 50 µg/mL.

— US20210292396A1
